Where “and” joins values, the source holds several entries; their conditions need not be identical. Equal entries are not always repeated. Entries after “also recorded” stand apart in the source; their conditions may differ.
B1: murine 16B5: murine anti-clusterin (anti-sCLU) monoclonal antibody 16B5 used in the mouse studies; VL SEQ ID NO:7, VH SEQ ID NO:8 (antibody, V domains shown)
VH: EVQLQQSGAELVKPGASVRLSCTTSGFNIKDIYMHWVKQRPEQGLEWIGRIDPAYGNTKYDPKFQGKATITADTSSNTAYLQLSSLTSEDTAVYYCARRYDTAMDYWGQGTSVTVSS
VL: DIVMSQSPSSLAVSAGEKVTMSCKSSQSLLNSRTRKNYLAWYQQKPGQSPKLLIYWASTRESGVPDRFTGSGSGTDFTLTISSVQAEDLAVYYCKQSYNLWTFGGGTKLEFK
modifications: Murine 16B5 VH; Murine 16B5 VL

Experiments:
Assay type in all cases: in vivo, Balb/c mice
[1] = system: 4T1 mouse mammary carcinoma cells; assay: 4T1 model: number of metastatic lung nodules; details: Day 37
Protocol: (§1) Five groups, each consisting of 10 female Balb/c mice were assigned to this study (see Table 5 below). All animals received subcutaneous implantation of 4T1 mouse mammary carcinoma cells in the 4th inguinal mammary gland. Treatment was initiated on the day of implantation (defined as Day 1). Animals from Group 1 (Gr. 1) received IP treatment of saline vehicle control twice a week for the duration of the study. Animals from Group 2 (Gr. 2) received 10 mg/kg of docetaxel weekly for five weeks by IP administration. Animals from Group 3 (Gr. 3) received 10 mg/kg of docetaxel weekly for two weeks and 10 mg/kg of AB-16B5, twice weekly for five weeks. Animals from Group 4 (Gr. 4) received 10 mg/kg of docetaxel weekly and 5 mg/kg of 16B5 twice weekly each over the course of a five weeks treatment. Animals from Group 5 (Gr. 5) received AB-16B5 twice weekly for five weeks. On Day 36, the primary tumors were excised and on Day 37, the animals were sacrificed and the number of grossly visible metastatic nodules on the surface of the lungs was counted.

4T1 primary tumors = assay: 4T1 model: CD45+ immune cells in primary tumors
Protocol: as §1
The primary tumors excised at Day 16 post implantation, were processed with collagenase and hyaluronidase and immune cells were purified by positive selection using magnetic latex beads coated with an anti-CD45 antibody. […]

4T1 tumor cells = assay: INFγ secretion of tumor infiltrating lymphocytes co-cultured with 4T1 cells (ELISA)
Protocol: (§2) Balb/c mice were orthotopically implanted with 5×10^5 4T1 cells in the 4′ mammary fat pad. Animals received intraperitoneal (IP) AB-16B5 (murine 16B5) 10 mg/kg twice weekly in combination with IP docetaxel 10 mg/kg weekly (Group 15: animals 1501, 1502 and 1503) or IP AB-16B5 10 mg/kg twice weekly (Group 25: […]). The primary tumor was surgically removed at Day 16 post-implantation. The animals were sacrificed at Day 36 and the lungs were excised and each visible lung metastasis was carefully dissected. Each visible metastatic nodule, if any, was excised and processed for a rapid expansion of tumor infiltrating lymphocyte protocol. The metastatic nodules were sectioned into small pieces of 2-3 mm edge that were individually grown in 24 well plates containing culture medium supplemented with FBS, IL2, IL7, ITS (1,000 U/mL IL2, 2.0 ng/mL IL7 and 1× insulin—transferrin—selenium cocktail (Gibco 41400-045)).
After three weeks in culture, 100,000 cells were taken from each of the lymphocyte cultures (six cultures corresponding to three animals from Group 15 and three animals from Group 25) and placed in culture with 100,000 4T1 tumor cells. After overnight co-culture, the supernatant was recovered for INFγ quantification by ELISA.

4T1 lung metastases [2] = assay: 4T1 orthotopic model: immunohistochemistry of lung metastases
Source text: Balb/c mice were orthotopically implanted with 5×10^5 4T1 cells in the 4′ mammary fat pad. Animals received IP saline treatment thrice weekly. The primary tumor was surgically removed at Day 16 post-implantation. The animals were sacrificed at Day 36 and the lungs were excised. Tissues were fixed in paraformaldehyde and processed for paraffin embedding. Tissue sections were probed with anti-mouse CD3, anti-mouse CD8 and anti-mouse B220 antibodies. […] Results presented in FIG. 1 indicate that the 4T1 lung metastases create an immune cold microenvironment which prevents the infiltration of B and T lymphocytes in tumors. Delineated regions indicate that CD3 and CD8 T lymphocytes are restricted in the tumor margin as a consequence of EMT.
Animals bearing 4T1 tumors were treated with the AB-16B5 antibody (murine 16B5) thrice a week IP at 10 mg/kg. The primary tumor was surgically removed at Day 16 post-implantation. The animals were sacrificed at Day 36 and the lungs were excised. Tissues were fixed in paraformaldehyde and processed for paraffin embedding. Tissue sections were probed with anti-mouse CD3, anti-mouse CD8 and anti-mouse B220 antibodies.

4T1 lung metastases [3] = assay: Flow cytometry immunophenotyping of lymphocytes from 4T1 lung metastases; details: Day 36 post-implantation, FIG. 4A and FIG. 4B
Protocol: as §2
The lymphocytes were stimulated with anti-CD3 and anti-CD28 monoclonal antibodies. Lymphocytes from each donor animal were pooled and processed for flow cytometry analysis with antibodies against CD45 (lymphocyte common antigen), CD3, CD4, CD8 and CD19 (B-cell biomarker) (FIG. 4A and FIG. 4B). The resulting single cell preparations were initially selected on their size to select those corresponding to immune cells. […]

[4] = 10 mg/kg IP thrice a week, Day 36

Molecule	metastatic lung nodules ([1]; Group 2: docetaxel 10 mg/kg IP 1X/week for 5 weeks)	CD45+ immune cells in primary tumors (4T1 primary tumors; Group 2: docetaxel 10 mg/kg IP 1X/week)	INFγ (4T1 tumor cells; Group 25 (samples 2501-2503, one value per animal): AB-16B5 10 mg/kg IP twice weekly, overnight co-culture with 4T1 cells)	INFγ secretion level of lymphocytes isolated from lung metastatic nodules (4T1 tumor cells; in the presence of 4T1 cells)	metastatic lung nodules ([1]; Group 5: AB-16B5 10 mg/kg IP 2X/week for 5 weeks)	infiltration of lung metastases with CD3 and CD8 T cells (4T1 lung metastases [2]; [4])	plasmocytes penetration in tumors (4T1 lung metastases [2]; [4])	lung metastases, number and size (4T1 lung metastases [2]; 10 mg/kg IP thrice a week, primary tumor removed Day 16, sacrifice Day 36)	B and T lymphocytes infiltration in 4T1 lung metastases (4T1 lung metastases [2]; FIG. 2A)	infiltration of 4T1 lung metastases by B and T lymphocytes (4T1 lung metastases [3])	CD45+ immune cells in primary tumors (4T1 primary tumors; Group 5: AB-16B5 10 mg/kg IP 2X/week)
CC(=O)O[C@@]12CO[C@@H]1C[C@H](O)[C@@]1(C)C(=O)[C@H](O)C3=C(C)[C@@H](OC(=O)[C@H](O)[C@@H](NC(=O)OC(C)(C)C)c4ccccc4)C[C@@](O)([C@@H](OC(=O)c4ccccc4)[C@H]21)C3(C)C [docetaxel]	as many metastatic lung nodules as the saline control group; also recorded: relatively ineffective	very few CD45+ were present									
B1			8538.8 pg/mL and 3770.0 pg/mL and 4538.8 pg/mL	high levels	less metastatic lung nodules than the saline-control-treated mice	densely infiltrated with CD3 and CD8 T cells	evidence of plasmocytes penetration	fewer and much smaller lung metastases	Results in B (B220) and T (CD3, CD4, CD8) Lymphocytes Infiltration	infiltrated by B and T lymphocytes	more immune cells

Source: patent US20240199758A1, “METHOD FOR ALLOWING IMMUNE CELLS INFILTRATION IN TUMORS” (Alethia Biotherapeutics Inc., priority 2021, published 2024)
